Experimental data from paper PMC8221569 (Molecular Cell, 2021).

Experiments:
Settings in all cases: both partners purified
[1] = target: T1, MCM2 HBD (61–130)–H3.3–H4 complex ( | human, UniProt P49736 61-130; P84243 1-136; P62805 2-103); assay: pull-down; GST-tagged protein (1.5 nmol) on Glutathione Sepharose 4B, 1.5 nmol histone complex added; 20 mM Tris pH 7.5, 500 mM NaCl, 4°C, 2 hours; washes with 0.5% Triton X-100; SDS-PAGE
T1 construct: histone H3.3, human; histone H4, human; also called pre-assembled MCM2 HBD-H3.3-H4 complexes; MCM2 HBD–H3.3–H4 complex; source: purified as described previously (Huang et al., 2015); copies: + +

histone H4 (recombinant) [2] = target: T2, histone H4 (recombinant) (human, UniProt P62805 2-103); assay: crystal structure; DNAJC9 HBD C243S mixed 1:1 with the MCM2 HBD (61–130)–H3.3 (57–135)–H4 complex, gel filtration in 1 M NaCl; PDB 7CJ0, 2.50 Å
histone H4 (recombinant) [3] = target: T2, histone H4 (recombinant); assay: crystal structure; DNAJC9 αB C243S mixed 1:1 with the MCM2 HBD (61–130)–H3.3 (57–135)–H4 complex, gel filtration in 500 mM NaCl; PDB 7CIZ, 1.80 Å
[4] = target: T3, human histones H3.3–H4 tetramer (human, UniProt P84243 1-136; P62805 1-103); assay: ITC; MicroCal PEAQ-ITC, 20°C, 20 mM Tris-HCl pH 7.5, 500 mM NaCl; 300 μM DNAJC9 HBD in the syringe, 30 μM (dimers) H3-H4 in the cell; one set of sites model; n = 3
T3 construct: histone H3.3, human; histone H4, human; methods call it a tetramer; construct as in Huang et al., 2015; also called pre-assembled H3.3-H4; H3.3 WT-H4; source: bacteria, co-expressed and purified (as in Huang et al., 2015; Superdex 200 in 2 M NaCl); copies: 2 + 2

B1: GST-DNAJC9 HBD (histone binding domain, 171–249) (domain or fragment)
chain: EVPSYNAFVKESKQKMNARKRRAQEEAKEAEMSRKELGLDEGVDSLKAAIQSRQKDRQKEMDNFLAQMEAKYCKSSKGG
notes: PDB 7CJ0 holds the same limits with C243S; also called GST-tagged DNAJC9 HBD; DNAJC9 HBD WT; source: E. coli BL21 (DE3)-RIL, purified (Glutathione Sepharose 4B, Superdex 200)
Question: Does B1 bind [1]?
Answer: binds

B2: GST-DNAJC9 HBD 4A1 (E195A E196A E199A A200E) (domain or fragment)
chain: EVPSYNAFVKESKQKMNARKRRAQAAAKAEEMSRKELGLDEGVDSLKAAIQSRQKDRQKEMDNFLAQMEAKYCKSSKGG
notes: source: E. coli BL21 (DE3)-RIL, purified (Glutathione Sepharose 4B, Superdex 200)
Question: Does B2 bind [1]?
Answer: binds

B3: GST-DNAJC9 HBD Q224A R227A (domain or fragment)
chain: EVPSYNAFVKESKQKMNARKRRAQEEAKEAEMSRKELGLDEGVDSLKAAIQSRAKDAQKEMDNFLAQMEAKYCKSSKGG
notes: as for B2
Question: Does B3 bind [1]?
Answer: binds

B4: GST-DNAJC9 HBD F234A L235A (domain or fragment)
chain: EVPSYNAFVKESKQKMNARKRRAQEEAKEAEMSRKELGLDEGVDSLKAAIQSRQKDRQKEMDNAAAQMEAKYCKSSKGG
notes: as for B2
Question: Does B4 bind [1]?
Answer: binds

B5: GST-DNAJC9 HBD M238A Y242A (domain or fragment)
chain: EVPSYNAFVKESKQKMNARKRRAQEEAKEAEMSRKELGLDEGVDSLKAAIQSRQKDRQKEMDNFLAQAEAKACKSSKGG
notes: as for B2
Question: Does B5 bind [1]?
Answer: binds

B6: DNAJC9 HBD C243S (171–249), GST tag removed (domain or fragment)
chain: EVPSYNAFVKESKQKMNARKRRAQEEAKEAEMSRKELGLDEGVDSLKAAIQSRQKDRQKEMDNFLAQMEAKYSKSSKGG
notes: crystallized construct; source: E. coli BL21 (DE3)-RIL, purified (Glutathione Sepharose 4B, 3C protease, Superdex 200)
Question: Does B6 bind (histone H4 (recombinant) [2])?
Answer: binds

B7: DNAJC9 αB C243S (204–249), GST tag removed (domain or fragment)
chain: RKELGLDEGVDSLKAAIQSRQKDRQKEMDNFLAQMEAKYSKSSKGG
notes: crystallized construct; also called isolated DNAJC9 αB helix (C243S); source: E. coli BL21 (DE3)-RIL, purified (Glutathione Sepharose 4B, 3C protease, Superdex 200)
Question: Does B7 bind (histone H4 (recombinant) [3])?
Answer: binds

B8: DNAJC9 HBD (171–249), GST tag removed (domain or fragment)
chain: EVPSYNAFVKESKQKMNARKRRAQEEAKEAEMSRKELGLDEGVDSLKAAIQSRQKDRQKEMDNFLAQMEAKYCKSSKGG
notes: used in ITC; also called DNAJC9 HBD WT; source: E. coli BL21 (DE3)-RIL, purified (Glutathione Sepharose 4B, 3C protease, Superdex 200)
Question: With B8 as the binder, how does the Kd [4] read?
Answer: 55 nM
